Data from patent US20260070987A1.

Biological target: equine FcRn (large alpha subunit p51) / equine beta-2-microglobulin complex, biotinylated (equine) (UniProt P30441)
Assay: SPR (Biacore), pH 6

UniProt P30441, sequence (P30441 21-118, one chain of several): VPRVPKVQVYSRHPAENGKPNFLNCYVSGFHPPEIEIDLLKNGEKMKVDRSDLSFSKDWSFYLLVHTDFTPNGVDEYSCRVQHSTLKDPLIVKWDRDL

Row | Binder | Kd [nM]
1 | equine IgG4 A426Q (antibody, part only; not given: variable domains, not shown: another chain or arm of the molecule) constant: ASTTAPKVFPLASHSAATSGSTVALGCLVSSYFPEPVTVSWNSGALTSGVHTFPSVLQSSGLYSLSSMVTVPASSLKSQTYICNVAHPASSTKVDKKIVIKECNGGCPAECLQVGPSVFIFPPKPKDVLMISRTPTVTCVVVDVGHDFPDVQFNWYVDGVETHTATTEPKQEQFNSTYRVVSVLPIQHKDWLSGKEFKCKVNNKALPAPVERTISKPTGQPREPQVYVLAPHRDELSKNKVSVTCLVKDFYPTDIDIEWKSNGQPEPETKYSTTPAQLDSDGSYFLYSKLTVETNRWQQGTTFTCQVMHEALHNHYTEKSVSKSPGK | 21.2
2 | equine IgG4 A426R (antibody, part only; not given: variable domains, not shown: another chain or arm of the molecule) constant: ASTTAPKVFPLASHSAATSGSTVALGCLVSSYFPEPVTVSWNSGALTSGVHTFPSVLQSSGLYSLSSMVTVPASSLKSQTYICNVAHPASSTKVDKKIVIKECNGGCPAECLQVGPSVFIFPPKPKDVLMISRTPTVTCVVVDVGHDFPDVQFNWYVDGVETHTATTEPKQEQFNSTYRVVSVLPIQHKDWLSGKEFKCKVNNKALPAPVERTISKPTGQPREPQVYVLAPHRDELSKNKVSVTCLVKDFYPTDIDIEWKSNGQPEPETKYSTTPAQLDSDGSYFLYSKLTVETNRWQQGTTFTCRVMHEALHNHYTEKSVSKSPGK | 22
3 | equine IgG4 A426S (antibody, part only; not given: variable domains, not shown: another chain or arm of the molecule) constant: ASTTAPKVFPLASHSAATSGSTVALGCLVSSYFPEPVTVSWNSGALTSGVHTFPSVLQSSGLYSLSSMVTVPASSLKSQTYICNVAHPASSTKVDKKIVIKECNGGCPAECLQVGPSVFIFPPKPKDVLMISRTPTVTCVVVDVGHDFPDVQFNWYVDGVETHTATTEPKQEQFNSTYRVVSVLPIQHKDWLSGKEFKCKVNNKALPAPVERTISKPTGQPREPQVYVLAPHRDELSKNKVSVTCLVKDFYPTDIDIEWKSNGQPEPETKYSTTPAQLDSDGSYFLYSKLTVETNRWQQGTTFTCSVMHEALHNHYTEKSVSKSPGK | 21.1
4 | equine IgG4 A426T (antibody, part only; not given: Variable domains, not shown: another chain or arm of the molecule) constant: ASTTAPKVFPLASHSAATSGSTVALGCLVSSYFPEPVTVSWNSGALTSGVHTFPSVLQSSGLYSLSSMVTVPASSLKSQTYICNVAHPASSTKVDKKIVIKECNGGCPAECLQVGPSVFIFPPKPKDVLMISRTPTVTCVVVDVGHDFPDVQFNWYVDGVETHTATTEPKQEQFNSTYRVVSVLPIQHKDWLSGKEFKCKVNNKALPAPVERTISKPTGQPREPQVYVLAPHRDELSKNKVSVTCLVKDFYPTDIDIEWKSNGQPEPETKYSTTPAQLDSDGSYFLYSKLTVETNRWQQGTTFTCTVMHEALHNHYTEKSVSKSPGK | 15.8
5 | equine IgG4 A426V (antibody, part only; not given: Variable domains, not shown: another chain or arm of the molecule) constant: ASTTAPKVFPLASHSAATSGSTVALGCLVSSYFPEPVTVSWNSGALTSGVHTFPSVLQSSGLYSLSSMVTVPASSLKSQTYICNVAHPASSTKVDKKIVIKECNGGCPAECLQVGPSVFIFPPKPKDVLMISRTPTVTCVVVDVGHDFPDVQFNWYVDGVETHTATTEPKQEQFNSTYRVVSVLPIQHKDWLSGKEFKCKVNNKALPAPVERTISKPTGQPREPQVYVLAPHRDELSKNKVSVTCLVKDFYPTDIDIEWKSNGQPEPETKYSTTPAQLDSDGSYFLYSKLTVETNRWQQGTTFTCVVMHEALHNHYTEKSVSKSPGK | 18.8
6 | equine IgG4 A426W (antibody, part only; not given: variable domains, not shown: another chain or arm of the molecule) constant: ASTTAPKVFPLASHSAATSGSTVALGCLVSSYFPEPVTVSWNSGALTSGVHTFPSVLQSSGLYSLSSMVTVPASSLKSQTYICNVAHPASSTKVDKKIVIKECNGGCPAECLQVGPSVFIFPPKPKDVLMISRTPTVTCVVVDVGHDFPDVQFNWYVDGVETHTATTEPKQEQFNSTYRVVSVLPIQHKDWLSGKEFKCKVNNKALPAPVERTISKPTGQPREPQVYVLAPHRDELSKNKVSVTCLVKDFYPTDIDIEWKSNGQPEPETKYSTTPAQLDSDGSYFLYSKLTVETNRWQQGTTFTCWVMHEALHNHYTEKSVSKSPGK | 14.4
7 | equine IgG1 T286L (antibody, part only; not given: variable domains, not shown: another chain or arm of the molecule) constant: ASTTAPKVFALAPGCGTTSDSTVALGCLVSGYFPEPVKVSWNSGSLTSGVHTFPSVLQSSGFYSLSSMVTVPASTWTSETYICNVVHAASNFKVDKRIEPIPDNHQKVCDMSKCPKCPAPELLGGPSVFIFPPNPKDTLMITRTPEVTCVVVDVSQENPDVKFNWYMDGVEVRLATTRPKEEQFNSTYRVVSVLRIQHQDWLSGKEFKCKVNNQALPQPIERTITKTKGRSQEPQVYVLAPHPDELSKSKVSVTCLVKDFYPPEINIEWQSNGQPELETKYSTTQAQQDSDGSYFLYSKLSVDRNRWQQGTTFTCGVMHEALHNHYTQKNVSKNPGK | 12.3
8 | equine IgG4 A426Y (antibody, part only; not given: variable domains, not shown: another chain or arm of the molecule) constant: ASTTAPKVFPLASHSAATSGSTVALGCLVSSYFPEPVTVSWNSGALTSGVHTFPSVLQSSGLYSLSSMVTVPASSLKSQTYICNVAHPASSTKVDKKIVIKECNGGCPAECLQVGPSVFIFPPKPKDVLMISRTPTVTCVVVDVGHDFPDVQFNWYVDGVETHTATTEPKQEQFNSTYRVVSVLPIQHKDWLSGKEFKCKVNNKALPAPVERTISKPTGQPREPQVYVLAPHRDELSKNKVSVTCLVKDFYPTDIDIEWKSNGQPEPETKYSTTPAQLDSDGSYFLYSKLTVETNRWQQGTTFTCYVMHEALHNHYTEKSVSKSPGK | 12.3
9 | equine IgG4 M428A (antibody, part only; not given: variable domains, not shown: another chain or arm of the molecule) constant: ASTTAPKVFPLASHSAATSGSTVALGCLVSSYFPEPVTVSWNSGALTSGVHTFPSVLQSSGLYSLSSMVTVPASSLKSQTYICNVAHPASSTKVDKKIVIKECNGGCPAECLQVGPSVFIFPPKPKDVLMISRTPTVTCVVVDVGHDFPDVQFNWYVDGVETHTATTEPKQEQFNSTYRVVSVLPIQHKDWLSGKEFKCKVNNKALPAPVERTISKPTGQPREPQVYVLAPHRDELSKNKVSVTCLVKDFYPTDIDIEWKSNGQPEPETKYSTTPAQLDSDGSYFLYSKLTVETNRWQQGTTFTCAVAHEALHNHYTEKSVSKSPGK | 23000
10 | equine IgG4 M428C (antibody, part only; not given: variable domains, not shown: another chain or arm of the molecule) constant: ASTTAPKVFPLASHSAATSGSTVALGCLVSSYFPEPVTVSWNSGALTSGVHTFPSVLQSSGLYSLSSMVTVPASSLKSQTYICNVAHPASSTKVDKKIVIKECNGGCPAECLQVGPSVFIFPPKPKDVLMISRTPTVTCVVVDVGHDFPDVQFNWYVDGVETHTATTEPKQEQFNSTYRVVSVLPIQHKDWLSGKEFKCKVNNKALPAPVERTISKPTGQPREPQVYVLAPHRDELSKNKVSVTCLVKDFYPTDIDIEWKSNGQPEPETKYSTTPAQLDSDGSYFLYSKLTVETNRWQQGTTFTCAVCHEALHNHYTEKSVSKSPGK | 53.2
11 | equine IgG4 M428D (antibody, part only; not given: Variable domains, not shown: another chain or arm of the molecule) constant: ASTTAPKVFPLASHSAATSGSTVALGCLVSSYFPEPVTVSWNSGALTSGVHTFPSVLQSSGLYSLSSMVTVPASSLKSQTYICNVAHPASSTKVDKKIVIKECNGGCPAECLQVGPSVFIFPPKPKDVLMISRTPTVTCVVVDVGHDFPDVQFNWYVDGVETHTATTEPKQEQFNSTYRVVSVLPIQHKDWLSGKEFKCKVNNKALPAPVERTISKPTGQPREPQVYVLAPHRDELSKNKVSVTCLVKDFYPTDIDIEWKSNGQPEPETKYSTTPAQLDSDGSYFLYSKLTVETNRWQQGTTFTCAVDHEALHNHYTEKSVSKSPGK | 40.7
12 | equine IgG4 M428E (antibody, part only; not given: variable domains, not shown: another chain or arm of the molecule) constant: ASTTAPKVFPLASHSAATSGSTVALGCLVSSYFPEPVTVSWNSGALTSGVHTFPSVLQSSGLYSLSSMVTVPASSLKSQTYICNVAHPASSTKVDKKIVIKECNGGCPAECLQVGPSVFIFPPKPKDVLMISRTPTVTCVVVDVGHDFPDVQFNWYVDGVETHTATTEPKQEQFNSTYRVVSVLPIQHKDWLSGKEFKCKVNNKALPAPVERTISKPTGQPREPQVYVLAPHRDELSKNKVSVTCLVKDFYPTDIDIEWKSNGQPEPETKYSTTPAQLDSDGSYFLYSKLTVETNRWQQGTTFTCAVEHEALHNHYTEKSVSKSPGK | 40.8
13 | equine IgG4 M428F (antibody, part only; not given: variable domains, not shown: another chain or arm of the molecule) constant: ASTTAPKVFPLASHSAATSGSTVALGCLVSSYFPEPVTVSWNSGALTSGVHTFPSVLQSSGLYSLSSMVTVPASSLKSQTYICNVAHPASSTKVDKKIVIKECNGGCPAECLQVGPSVFIFPPKPKDVLMISRTPTVTCVVVDVGHDFPDVQFNWYVDGVETHTATTEPKQEQFNSTYRVVSVLPIQHKDWLSGKEFKCKVNNKALPAPVERTISKPTGQPREPQVYVLAPHRDELSKNKVSVTCLVKDFYPTDIDIEWKSNGQPEPETKYSTTPAQLDSDGSYFLYSKLTVETNRWQQGTTFTCAVFHEALHNHYTEKSVSKSPGK | 25.4
14 | equine IgG4 M428G (antibody, part only; not given: variable domains, not shown: another chain or arm of the molecule) constant: ASTTAPKVFPLASHSAATSGSTVALGCLVSSYFPEPVTVSWNSGALTSGVHTFPSVLQSSGLYSLSSMVTVPASSLKSQTYICNVAHPASSTKVDKKIVIKECNGGCPAECLQVGPSVFIFPPKPKDVLMISRTPTVTCVVVDVGHDFPDVQFNWYVDGVETHTATTEPKQEQFNSTYRVVSVLPIQHKDWLSGKEFKCKVNNKALPAPVERTISKPTGQPREPQVYVLAPHRDELSKNKVSVTCLVKDFYPTDIDIEWKSNGQPEPETKYSTTPAQLDSDGSYFLYSKLTVETNRWQQGTTFTCAVGHEALHNHYTEKSVSKSPGK | 31.5
15 | equine IgG4 M428H (antibody, part only; not given: variable domains, not shown: another chain or arm of the molecule) constant: ASTTAPKVFPLASHSAATSGSTVALGCLVSSYFPEPVTVSWNSGALTSGVHTFPSVLQSSGLYSLSSMVTVPASSLKSQTYICNVAHPASSTKVDKKIVIKECNGGCPAECLQVGPSVFIFPPKPKDVLMISRTPTVTCVVVDVGHDFPDVQFNWYVDGVETHTATTEPKQEQFNSTYRVVSVLPIQHKDWLSGKEFKCKVNNKALPAPVERTISKPTGQPREPQVYVLAPHRDELSKNKVSVTCLVKDFYPTDIDIEWKSNGQPEPETKYSTTPAQLDSDGSYFLYSKLTVETNRWQQGTTFTCAVHHEALHNHYTEKSVSKSPGK | 29.4
16 | equine IgG4 M428I (antibody, part only; not given: variable domains, not shown: another chain or arm of the molecule) constant: ASTTAPKVFPLASHSAATSGSTVALGCLVSSYFPEPVTVSWNSGALTSGVHTFPSVLQSSGLYSLSSMVTVPASSLKSQTYICNVAHPASSTKVDKKIVIKECNGGCPAECLQVGPSVFIFPPKPKDVLMISRTPTVTCVVVDVGHDFPDVQFNWYVDGVETHTATTEPKQEQFNSTYRVVSVLPIQHKDWLSGKEFKCKVNNKALPAPVERTISKPTGQPREPQVYVLAPHRDELSKNKVSVTCLVKDFYPTDIDIEWKSNGQPEPETKYSTTPAQLDSDGSYFLYSKLTVETNRWQQGTTFTCAVIHEALHNHYTEKSVSKSPGK | 49.5
